From patent EP4603109A1 (Sichuan Kelun-Biotech Biopharmaceutical Co., Ltd., dated 2024)

Key:
[1] = target: T1, B7-H3 on human tumor cell lines (HT29, NCI-N87, HCC1806, HCC827, A375) (human, UniProt Q5ZPR3 29-534); test: flow cytometry on HT29 cells (experiment 2)
T1 construct: whole, on cells
T1 sequence (looked up): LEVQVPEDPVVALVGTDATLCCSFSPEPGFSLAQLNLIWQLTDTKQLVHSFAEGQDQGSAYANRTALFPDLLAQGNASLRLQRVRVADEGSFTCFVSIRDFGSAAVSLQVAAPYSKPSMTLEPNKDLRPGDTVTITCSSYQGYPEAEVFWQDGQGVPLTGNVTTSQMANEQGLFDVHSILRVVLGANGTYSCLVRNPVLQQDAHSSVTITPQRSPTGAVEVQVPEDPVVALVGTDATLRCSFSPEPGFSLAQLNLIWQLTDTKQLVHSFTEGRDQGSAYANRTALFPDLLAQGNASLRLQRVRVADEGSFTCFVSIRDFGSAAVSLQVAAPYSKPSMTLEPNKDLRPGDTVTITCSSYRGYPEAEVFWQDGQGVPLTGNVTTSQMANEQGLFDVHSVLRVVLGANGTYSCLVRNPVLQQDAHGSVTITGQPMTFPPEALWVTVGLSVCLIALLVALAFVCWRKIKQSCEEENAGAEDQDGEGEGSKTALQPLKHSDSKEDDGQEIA

[2] = target: T1, B7-H3 on human tumor cell lines (HT29, …); test: flow cytometry on HCC827 cells (experiment 2)
[3] = target: T2, rat B7-H3-his protein (rat, UniProt Q7TPB4 29-248, limits assumed); test: BLI (ForteBio), ADC captured on Protein A sensor (result 2)
T2 construct: not shown: His tag
T2 sequence (looked up): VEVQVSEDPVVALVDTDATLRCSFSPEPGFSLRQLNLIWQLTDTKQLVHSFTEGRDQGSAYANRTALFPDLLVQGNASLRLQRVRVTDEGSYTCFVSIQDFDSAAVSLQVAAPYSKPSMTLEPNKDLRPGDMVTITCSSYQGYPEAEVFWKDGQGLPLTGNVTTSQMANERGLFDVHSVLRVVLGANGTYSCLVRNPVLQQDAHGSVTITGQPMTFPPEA

[4] = target: T3, human B7-H3-2Ig-his protein (human, UniProt Q5ZPR3-2 29-245, limits assumed); test: BLI (ForteBio), ADC on Protein A sensor, antigen 200-3.125 nM, 1:1 global fit (result 2)
T3 construct: the 2Ig form is its isoform 2; not shown: His tag
T3 sequence (looked up): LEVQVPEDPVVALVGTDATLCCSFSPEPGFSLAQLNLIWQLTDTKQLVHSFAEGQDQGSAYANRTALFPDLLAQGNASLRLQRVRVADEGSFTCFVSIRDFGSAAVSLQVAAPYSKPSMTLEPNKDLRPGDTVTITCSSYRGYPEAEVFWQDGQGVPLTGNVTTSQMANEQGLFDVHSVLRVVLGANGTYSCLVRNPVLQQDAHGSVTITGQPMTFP

[5] = target: monkey B7-H3-his protein (monkey); test: as above
[6] = target: T4, human B7-H3-4Ig-his protein (human, UniProt Q5ZPR3 29-461, limits assumed); test: as above
T4 construct: not shown: His tag
T4 sequence (looked up): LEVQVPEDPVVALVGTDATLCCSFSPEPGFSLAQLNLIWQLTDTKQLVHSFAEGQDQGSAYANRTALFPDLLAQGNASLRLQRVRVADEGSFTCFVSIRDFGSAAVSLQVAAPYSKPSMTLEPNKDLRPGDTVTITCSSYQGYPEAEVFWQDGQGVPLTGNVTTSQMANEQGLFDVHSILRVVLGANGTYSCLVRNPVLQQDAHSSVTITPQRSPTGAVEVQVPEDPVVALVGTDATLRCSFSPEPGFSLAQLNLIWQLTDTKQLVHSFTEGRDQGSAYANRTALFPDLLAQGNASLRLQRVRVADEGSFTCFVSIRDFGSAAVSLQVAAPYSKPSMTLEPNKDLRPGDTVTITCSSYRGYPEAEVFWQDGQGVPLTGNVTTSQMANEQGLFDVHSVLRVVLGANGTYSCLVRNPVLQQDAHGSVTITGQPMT

B1: ADC 17 (2#8890-B-03, DAR 8) (antibody, human IgG1, kappa, V domains shown)
VH: QVQLQESGPGLVQPSGTLSLTCAVSGGSDSSTNWWTWVRQSPGQGLEWIGEISPIGFTSYSPSLRSRVTISVDKSKTQFSLKLSSVTAADTAVYYCARDRLYFAFWGQGTLVTVSS
VL: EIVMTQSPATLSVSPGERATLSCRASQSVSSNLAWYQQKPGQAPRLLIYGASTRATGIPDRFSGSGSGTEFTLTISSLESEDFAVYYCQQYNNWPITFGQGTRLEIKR
modifications: cysteine sulfhydryls carry drug-linker B-03 (sites not stated; DAR 7.82 per antibody)
EC50 [1]: 3.21 ng/mL | EC50 [2]: 8.05 ng/mL | binding result [3]: no binding (tested: 200 nM (highest antigen concentration)) | Kd [4]: 42 nM | Kd [5]: 2.57 nM | Kd [6]: 1.04 nM
